Experimental data from the RNAGym collection of RNA variant scans (doi:10.1093/molbev/msab373).

B1: Azoarcus group I ribozyme (parent)
chain: GUGCCUUGCGCCGGGAAACCACGCAAGGGAUGGUGUCAAAUUCGGCGAAACCUAAGCGCCCGCCCGGGCGUAUGGCAACGCCGAGCCAAGCUUCGGCGCCUGCGCCGAUGAAGGUGUAGAGACUAGACGGCACCCACCUAAGGCAAACGCUAUGGUGAAGGCAUAGUCCAGGGAGUGGCGAAAGUCACACAAACCGG

Variants of: B1
Experiment: reverse-splicing fitness (ratio to wild type); higher = more active; in vitro selection; Mg2+ level not given
In short: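 An in vitro group I ribozyme library with randomized positions was T7-transcribed and gel-purified. In triplicate, 10 pmol RNA in EPPS pH 7.5 was reacted with 50 pmoles of a 30-nt RNA substrate for 1 h at 37 °C across several added MgCl2 levels (1–48 mM), then stopped with EDTA. Products were reverse transcribed from a substrate-complementary primer, PCR-amplified and sequenced (HiSeq 4000). Fitness is a variant's read proportion after selection over that before, normalised to wild type.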

Going from GUGCCUUGCGCCGGGAAACCACGCAAGGGAUGGUGUCAAAUUCGGCGAAACCUAAGCGCCCGCCCGGGCGUAUGGCAACGCGGAGCCAAGCUUCGGCGCCUGCGCCGAUGGAGGUGUAGGGACUAGACGGCACCCACCUAAGGCCAACGUUAUGGUGAAGGCAUAGUCAAGGGAGAGGCGAAAGUCACACAAACCGG [C82G A111G A120G A145C C150U C169A U176A] to GUGCCUUGCGCCGGGAAACCACGCAAGGGAUGGUGUCAAAUUCGGCGAAACCUAAGCGCCCGCCCGGGCGUAUGGCAACGCGGAGCCAAGCUUCGGCGCCUGCGCCGAUGGAGGUGUAGGGACUAGACGGCACCCACCUAAGGCCAACGUUAUGGUGAAGGCAUAGUCAAGGGAGGGGCGAAAGUCACACAAACCGG [C82G A111G A120G A145C C150U C169A U176G], the reverse-splicing fitness falls from 0.0167 to 0.00578.

Going from GUGCCUUGCGCCGGGAAACCACGCAAGGGAUGGUGUCAAAUUCGGCGAAACCUAAGCGCCCGCCCGGGCGUAUGGCAACGCGGAGCCAAGCUUCGGCGCCUGCGCCGAUGGAGGUGUAGGGACUAGACGGCACCCACCUAAGGCCAACGUUAUGGUGAAGGCAUAGUCAAGGGAGUGGCGAAAGUCACACAAACCGG [C82G A111G A120G A145C C150U C169A] to GUGCCUUGCGCCGGGAAACCACGCAAGGGAUGGUGUCAAAUUCGGCGAAACCUAAGCGCCCGCCCGGGCGUAUGGCAACGCGGAGCCAAGCUUCGGCGCCUGCGCCGAUGGAGGUGUAGGGACUAGACGGCACCCACCUAAGGCCAACGUUAUGGUGAAGGCAUAGUCUAGGGAGUGGCGAAAGUCACACAAACCGG [C82G A111G A120G A145C C150U C169U], the reverse-splicing fitness falls from 0.00962 to 0.0088.

Compared with GUGCCUUGCGCCGGGAAACCACGCAAGGGAUGGUGUCAAAUUCGGCGAAACCUAAGCGCCCGCCCGGGCGUAUGGCAACGCGGAGCCAAGCUUCGGCGCCUGCGCCGAUGGAGGUGUAGGGACUAGACGGCACCCACCUAAGGCCAACGUUAUGGUGAAGGCAUAGUCGAGGGAGUGGCGAAAGUCACACAAACCGG [C82G A111G A120G A145C C150U C169G], GUGCCUUGCGCCGGGAAACCACGCAAGGGAUGGUGUCAAAUUCGGCGAAACCUAAGCGCCCGCCCGGGCGUAUGGCAACGCGGAGCCAAGCUUCGGCGCCUGCGCCGAUGGAGGUGUAGGGACUAGACGGCACCCACCUAAGGCCAACGUUAUGGUGAAGGCAUAGUCCAGGGAGUGGCGAAAGUCACACAAACCGG [C82G A111G A120G A145C C150U] is lower in reverse-splicing fitness: 0.0111 for the first, 0.00975 for the second.

First: GUGCCUUGCGCCGGGAAACCACGCAAGGGAUGGUGUCAAAUUCGGCGAAACCUAAGCGCCCGCCCGGGCGUAUGGCAACGCGGAGCCAAGCUUCGGCGCCUGCGCCGAUGGAGGUGUAGGGACUAGACGGCACCCACCUAAGGCCAACGGUAUGGUGAAGGCAUAGUCUAGGGAGGGGCGAAAGUCACACAAACCGG [C82G A111G A120G A145C C150G C169U U176G]
Second: GUGCCUUGCGCCGGGAAACCACGCAAGGGAUGGUGUCAAAUUCGGCGAAACCUAAGCGCCCGCCCGGGCGUAUGGCAACGCGGAGCCAAGCUUCGGCGCCUGCGCCGAUGGAGGUGUAGGGACUAGACGGCACCCACCUAAGGCCAACGGUAUGGUGAAGGCAUAGUCUAGGGAGAGGCGAAAGUCACACAAACCGG [C82G A111G A120G A145C C150G C169U U176A]
The reverse-splicing fitness of the first is lower: 0.00615 for the first, 0.0139 for the second.

Compared with GUGCCUUGCGCCGGGAAACCACGCAAGGGAUGGUGUCAAAUUCGGCGAAACCUAAGCGCCCGCCCGGGCGUAUGGCAACGCGGAGCCAAGCUUCGGCGCCUGCGCCGAUGGAGGUGUAGGGACUAGACGGCACCCACCUAAGGCCAACGGUAUGGUGAAGGCAUAGUCUAGGGAGCGGCGAAAGUCACACAAACCGG [C82G A111G A120G A145C C150G C169U U176C], GUGCCUUGCGCCGGGAAACCACGCAAGGGAUGGUGUCAAAUUCGGCGAAACCUAAGCGCCCGCCCGGGCGUAUGGCAACGCGGAGCCAAGCUUCGGCGCCUGCGCCGAUGGAGGUGUAGGGACUAGACGGCACCCACCUAAGGCCAACGGUAUGGUGAAGGCAUAGUCAAGGGAGAGGCGAAAGUCACACAAACCGG [C82G A111G A120G A145C C150G C169A U176A] is lower in reverse-splicing fitness: 0.0147 for the first, 0.0102 for the second.

Going from GUGCCUUGCGCCGGGAAACCACGCAAGGGAUGGUGUCAAAUUCGGCGAAACCUAAGCGCCCGCCCGGGCGUAUGGCAACGCGGAGCCAAGCUUCGGCGCCUGCGCCGAUGGAGGUGUAGGGACUAGACGGCACCCACCUAAGGCCAACGGUAUGGUGAAGGCAUAGUCAAGGGAGCGGCGAAAGUCACACAAACCGG [C82G A111G A120G A145C C150G C169A U176C] to GUGCCUUGCGCCGGGAAACCACGCAAGGGAUGGUGUCAAAUUCGGCGAAACCUAAGCGCCCGCCCGGGCGUAUGGCAACGCGGAGCCAAGCUUCGGCGCCUGCGCCGAUGGAGGUGUAGGGACUAGACGGCACCCACCUAAGGCCAACGGUAUGGUGAAGGCAUAGUCAAGGGAGGGGCGAAAGUCACACAAACCGG [C82G A111G A120G A145C C150G C169A U176G], the reverse-splicing fitness falls from 0.009 to 0.00562.

First: GUGCCUUGCGCCGGGAAACCACGCAAGGGAUGGUGUCAAAUUCGGCGAAACCUAAGCGCCCGCCCGGGCGUAUGGCAACGCGGAGCCAAGCUUCGGCGCCUGCGCCGAUGGAGGUGUAGGGACUAGACGGCACCCACCUAAGGCCAACGUUAUGGUGAAGGCAUAGUCUAGGGAGAGGCGAAAGUCACACAAACCGG [C82G A111G A120G A145C C150U C169U U176A]
Second: GUGCCUUGCGCCGGGAAACCACGCAAGGGAUGGUGUCAAAUUCGGCGAAACCUAAGCGCCCGCCCGGGCGUAUGGCAACGCGGAGCCAAGCUUCGGCGCCUGCGCCGAUGGAGGUGUAGGGACUAGACGGCACCCACCUAAGGCCAACGUUAUGGUGAAGGCAUAGUCUAGGGAGGGGCGAAAGUCACACAAACCGG [C82G A111G A120G A145C C150U C169U U176G]
The reverse-splicing fitness of the first is higher: 0.0174 for the first, 0.00538 for the second.

With GUGCCUUGCGCCGGGAAACCACGCAAGGGAUGGUGUCAAAUUCGGCGAAACCUAAGCGCCCGCCCGGGCGUAUGGCAACGCGGAGCCAAGCUUCGGCGCCUGCGCCGAUGGAGGUGUAGGGACUAGACGGCACCCACCUAAGGCCAACGUUAUGGUGAAGGCAUAGUCUAGGGAGCGGCGAAAGUCACACAAACCGG [C82G A111G A120G A145C C150U C169U U176C] the reverse-splicing fitness was 0.0151.
